{"source": "the DeepSol protein solubility set"}
{"test": "soluble on expression in E. coli; label from the status in PepcDB or PDB records"}
{"sequence": "MGSDKIHHHHHHMRIHVLCDDSSQNGFESEHGFSVLVDSVLFDTGKSDVFLKNARKLGIDLPKDVLISHGHYDHAGGLLYLSGKRVWLRKEALDQKYSGERYAGADWNEVLYYNTGKFVIERITEIGKNMFLLGPANLRGKVPTGDFFVERNGERRKDLFEDEQTLVVRTKEGLVVITGCSHRGIDNILLDIAETFNERIKMVVGGFHLLKSSDDEIEKIVKAFNELGVETVVPCHCTGERAVDIFKREFLGKIMDCYAGLKLEVSD", "soluble on expression in E. coli": "soluble"}
{"sequence": "MLSIIIPVYNEKGNILELTSRIKSALKNNEYEIVFVDDSTDETPKIIESLALKYNNIRLKHRKGKKGLSSAVIDGFKLARGDVLSVMDGDLQHPPEMLESMLFQMKKDTDIVICSRFVLGGKEEGLNIFRKFASFIARLIGKIFLKPLRKISDPTAGFFMLKRKVIKNRDLRAIGWKILIEILVMGDYKRVVELPYSFKRRKHEKSKFTISVQGQYLKQIVSLFIRSKKYNIKLEHHHHHH", "soluble on expression in E. coli": "soluble"}
{"sequence": "MKSKLICIIMVIAFQAHFTMTVKADSVGEEKLQNNTQAKKTPADLKALPDSCEAKDFYKNFKILDMTKDKLGVTHYTLALSSGGYLTDNDEIKVHVTPDNKITFINGDLQQGQLRITNQIKITEKNAIEKAFEAIGQSEAHVKSYVGNPVKEKEIILNSRTKRLVYNIKLIFAEPEVASWIVQVDVETGAILKKQNMLSEVERADTHKDFQALGKGANRLLQRPLHVMKINDLFYLVDRTHKGLIRTFDLKHNTDTSFGKVVSNKTNMFTDPEFSSAVDAHFYASEVYEYYKNVHQLESLDGKGGEIDSFVHYGLNCNNAFWDGQEILYGDGDKKNFKPFSCAKTIVGHELTHAVIQYSAGLEYEGQSGALNESFADVFGYFIAPNHWLIGEDVCVRGSRDGRIRSIKDPDKYNQAAHMKDYESLPLTEEGDWGGVHYNSGIPNKAAYNTITKLGKEKTEQLYFRALKYYLTKKSQFTDAKKALQQAAKDLYGEDASKKVAEAWEAVGVN", "soluble on expression in E. coli": "not soluble"}
{"sequence": "MTPTIELICGHRSIRHFTDEPISEAQREAIINSARATSSSSFLQCSSIIRITDKALREELVTLTGGQKHVAQAAEFWVFCADFNRHLQICPDAQLGLAEQLLLGVVDTAMMAQNALIAAESLGLGGVYIGGLRNNIEAVTKLLKLPQHVLPLFGLCLGWPADNPDLKPRLPASILVHENSYQPLDKGALAQYDEQLAEYYLTRGSNNRRDTWSDHIRRTIIKESRPFILDYLHKQGWATR", "soluble on expression in E. coli": "soluble"}
{"sequence": "MSEPEEQQPDIHTTAGKLADLRRRIEEATHAGSARAVEKQHAKGKLTARERIDLLLDEGSFVELDEFARHRSTNFGLDANRPYGDGVVTGYGTVDGRPVAVFSQDFTVFGGALGEVYGQKIVKVMDFALKTGCPVVGINDSGGARIQEGVASLGAYGEIFRRNTHASGVIPQISLVVGPCAGGAVYSPAITDFTVMVDQTSHMFITGPDVIKTVTGEDVGFEELGGARTHNSTSGVAHHMAGDEKDAVEYVKQLLSYLPSNNLSEPPAFPEEADLAVTDEDAELDTIVPDSANQPYDMHSVIEHVLDDAEFFETQPLFAPNILTGFGRVEGRPVGIVANQPMQFAGCLDITASEKAARFVRTCDAFNVPVLTFVDVPGFLPGVDQEHDGIIRRGAKLIFAYAEATVPLITVITRKAFGGAYLVMGSKHLGADLNLAWPTAQIAVMGAQGAVNILHRRTIADAGDDAEATRARLIQEYEDALLNPYTAAERGYVDAVIMPSDTRRHIVRGLRQLRTKRESLPPKKHGNIPL", "soluble on expression in E. coli": "soluble"}
{"sequence": "GMSLIPEIDAFLGCPTPDAWIEAALADQETLLIDHKNCEFKAASTALSLIAKYNTHLDLINMMSRLAREELVHHEQVLRLMKRRGVPLRPVSAGRYASGLRRLVRAHEPVKLVDTLVVGAFIEARSCERFAALVPHLDEELGRFYHGLLKSEARHYQGYLKLAHNYGDEADIARCVELVRAAEMELIQSPDQELRFHSGIPQALAA", "soluble on expression in E. coli": "soluble"}
{"sequence": "MGHHHHHHSHMAGLQRLASHLPVGVMLPHNTTEAPGPHSAKQDSYEQGDSSQQSLKGHLRNNFQKQLLSNKELILDKVYTHPKWNTQTKARSYSYPHCTGISQQDPESDSQGQGNGLFYSSGPQSWYPKANNQDFIPFTKKRVGVDRAFPLKPMVHRKSCSTGEAGTDGDHNVYPRPPEPREFSSRNFGVRNQGNFSVVGTVLAATQAEKAVANFDRTEWVQIRRLEAAGESLEEEIRRKQILLRGS", "soluble on expression in E. coli": "not soluble"}
{"sequence": "MAAATTTASAFKWPWQYDFPPFFTIQKSLNTKDKQLEAWARLVIDYAQHNKIYSLDIAEATTSELFNNQKLNRRLSTDGVNTVLQYLEQKKLIEFTDNGRTRFHIFWRRPDVWANMIYQWAVENAFINTPLTLYEITHGDDTTNESFHNLEREILMKALTCLEEQRRAQLMNIGGDNEGVKFI", "soluble on expression in E. coli": "soluble"}
{"sequence": "MLAGHTLIESKNDHQSRRNCEFRRAIAAAGRCRRVYGGALPLLASSVPMSVRMDTRHRQKQALAQTAATMIEPGEFIFLDSGSTNLALIDFLPKGYDLTLATNSIDIAGAALRGQDLKLIMLGGTVDLAVGGCVDATAIGSLAQMNIDRSFIGVCSVSPTFGLSAFDIADATFKRALVAASGYTIALATTDKLEVRAPHRVSEINEIDCLVLEHDAPISHLDDLVRAGASIVKALQPFAAALEHHHHHH", "soluble on expression in E. coli": "not soluble"}
{"sequence": "MKFKKYILTGTLALLLSSTGIATIEGNKADASSLDKYLTESQFHDKRIAEELRTLLNKSNVYALAAGSLNPYYKRTIMMNEYRAKAALKKNDFVSMADAKVALEKIYKEIDEIINR", "soluble on expression in E. coli": "not soluble"}
{"sequence": "MSLQQSPSTSRPQLGIGLIGTGFMGRAHALAFGSANAALELPARIHLAALADADSARAEQCAQAWGFDRSHADWQQLVEDPRVQIVAITTPNHLHFPMAMAAIAAGKAVYCEKPLAVSLAQADEMQRSAKAAGVVTQVGYNYQHNPMIGLAREMIEAGELGDIVSFQGEFSEDFMGSATSPWSWRCEAAHAGGALADLGSHLLAMARYLLGDIEAVCADANTVHSQRPASPGSNEMRAIAVDDQTHALLRFASGARGTFSSSWLKHGYKNHLSFEISGTQGTLTYDQERLNELRIYRPGAPGRDGFQRLLAGPAQPGYAAFCPAPGHQLGYNELKALEVQALILAVCGQGSRGPDFEEAWQIERLATAIRLAAHEQRWVALDDEGHHHHHH", "soluble on expression in E. coli": "soluble"}
{"sequence": "MMRCPECSTEGWRVLPLTVGAHVKEGLWSKIKGDFYFCSLESCEVVYFNEQTVFRKGELKTRVGVKEREEPKPVCYCNRVTEKMLLEAAEKFGKEKAVEITGAGKGKWCVVTNPSGRCCHWHLERLGFPVGGEKKAAKRVEIKLDGLTCMGCVSAVKAALEEAGANVVEIGLDRAVVEVDEEAELQKLVEAVEGAGYSARLEKR", "soluble on expression in E. coli": "not soluble"}
{"sequence": "YNPLYSIENATSRRDTVLQNMVAAGKISQKQANEAKKVGMGNRISDTYVAKTDDYQYPSYFDAVISEASSVYGISEKDIVNNGY", "soluble on expression in E. coli": "not soluble"}
{"sequence": "GMSPTVLPATQADFPKIVDVLVEAFANDPTFLRWIPQPDPGSAKLRALFELQIEKQYAVAGNIDVARDSEGEIVGVALWDRPDGNHSAKDQAAMLPRLVSIFGIKAAQVAWTDLSSARFHPKFPHWYLYTVATSSSARGTGVGSALLNHGIARAGDEAIYLEATSTRAAQLYNRLGFVPLGYIPSDDDGTPELAMWKPPAMPTV", "soluble on expression in E. coli": "soluble"}
{"sequence": "PYSYDLIFGDVNTTNFYAQFAKKHNTHMWSKIQSTQNGEIGFHKNSKTGQQRH", "soluble on expression in E. coli": "soluble"}
{"sequence": "MSKVRVAGFSVSVDGFGAGPEQSLNDPLGKRGPEMFQWFFHTRTFRAMMGKDDGSTGIDEDYASRAMANFGAFILGRNMFGPIRGEWPDDAWKGWWGPNPPYHAPTYVLTHYPREPLVMEGGTTFHFVTGGIHQALDQAKAAAGDKDVKIGGGVATVRQYLQAGLIDELHFAVSPVVLGKGEAMFAGIDLPALDFRVTEHAASEKATHIVLAKLEHHHHHH", "soluble on expression in E. coli": "not soluble"}
{"sequence": "MGSDKIHHHHHHCTHKYKIEGTSSVNGLDGKMLYLKTLRDGEWTKLDSAEVVHGSFSMKGKIDSVQMTTLYMDDESVMPVVLESGKIVITISNTDLKAVGTPLNTALYDFIAKKNAMEESIGELERKETRMVMDGADLEEVHEQLLAEGDSLMKAMNQYVKTFISDNYENVLGPNVFIMLCSSLPYPIMTPQIDDIIKDAPYSFKSNKMVREFLTKAKENMQLIEEHQRMQQNVGSKK", "soluble on expression in E. coli": "not soluble"}
{"sequence": "MTNYIYPKFGYLRSKEQAEGIVKRHPIVVIGAGPVGLTAALDCAARGQPVVLLDDNDTVSIGSRAVCYAKRPLEIWNRLDCADPMVERGVSWNVGKVFFRDELSYQFDLLPESDHEWPAMINLQQYHLEEILVARCRASPLIDLRWKHRLISLKQAADHAELAVETPDGIFTMEAQWVIACDGANSDTRKMVGAEFKGQYFEDRFLIADVAMKADFPTERWFWFDPPFHPAQSVLLHRQADDIWRIDFQLGWDADPDEEKRPERVIPRIKAMLGEDTEFELEWVSIYQFACRRIDKFRHGRVLFAGDAAHQVSPFGARGANTGVQDIDNLAWKLAMVLRGEAPEALLDSYHDERAYAADDNILNSTRATDFITPKTKVSRHFRDAVLELAQHHGFARPLVNSGRLSTPTPYVTSPLNTFDDSLLDGEMRPGTNAADAPVTIGGKPDWFLNCLGAGFVVVTFDQAVDNERIEVGPIAARVIRVGRDIDDPRGVLASRYGTSTGTTYLFRPDQYVAARWAGFDEGKISAALLRATAQDAVRQKEIAALEHHHHHH", "soluble on expression in E. coli": "not soluble"}
{"sequence": "MGSDKIHHHHHHMKKLENKKSSSIKLETVRRKTINLSETEFIKIDFLTHWETLPIVLKPNIDYLDLADWIESSQNFIETKLLKYGAILFRGFNVDTATTFERVCLALCSDLFNENGEHPRKSVSGKVYTPVSYPADKKLLWHNENSFNYSWPRKILFGCLQPAQQGGETPIVDSRIVFQLIDPKIRERFIDKKVMYIRNYGDRLGLNWETVFQTSDRLEVEAACTKAAIDFEWKTGNRLRTIAVRPAVVKHPQTKEMSWFNQAQHWHPACLDSQTRESLLSMFKQEDLPRNCYYGDGSLIEDSVLEEICGVYQQLEVSFPWKRGDLLLLDNLLTAHSRNSYMGERQLLVAMGEMANFEDV", "soluble on expression in E. coli": "not soluble"}
{"sequence": "MKFCSQCGGEVILRIPEGDTLPRYICPKCHTIHYQNPKVIVGCIPEWENKVLLCKRAIAPYRGKWTLPAGFMENNETLVQGAARETLEEANARVEIRELYAVYSLPHISQVYMLFRAKLLDLDFFPGIESLEVRLFGEQEIPWNDIAFRVIHDPLKRYMEERHHGQPAFHLGIINKPQAGSNSNE", "soluble on expression in E. coli": "soluble"}
{"sequence": "MSFGYLIATSQPCELLTKSRGETFSLIMDKMDLWIYFRFCEGNIYTIRKNETESCLTERGGEWLKHIYEFNRGSFIFSYVLLKKRESEENFTEIVLKSIKNNKILTVKVRSGLHFDLRNIYRIEM", "soluble on expression in E. coli": "not soluble"}
{"sequence": "GPGSMRRLFPTAKLLGSTTGIRLASMKSSDKERLERLVEEVNGIKSKLKVLEESKAANGLVDLYASRKMKRLDIKRILGIFNDRAYHAPIFCHKALPIILAHFITGLDRLPSGLNAMPSILAVRATLLRSFQKLINCKIPATDDQVQHFRRVLEDIDEEHAERNLLQTMAFGILELKEYVSSHRRALVDLKKTSERWASIPMTEENVLTYAEIQDIQAPLDSVNRCMITYNFISRMFLNHDPDMTMSSNPRRIGMVDLEMNLEHVVRNAVDEAKQICTDHYGDCPDTEFELTSDTKAFRFPYMSTTIRYIILELMKNAFRATVDSHMKRNDVGMVTCADMPPVRVLINLQEGTEHACICISDEGMGMTDEALTMAMAYSYTSVSKPALQLGESGERCASTAPSPLAGYGYGLPMSRVYAQSLGGDLLLQTMEGYGTRAYYYIKIADAQPLCDEETK", "soluble on expression in E. coli": "soluble"}
{"sequence": "MCMPTKKYTEKFKISLVYLYRKGTSKQTLEDFGVSSASLSRWIKWYDVTDVDLNEAANILQMYELKKQKDKLEAEVLELTKAIQLFNSDLNTVLEHHHHHH", "soluble on expression in E. coli": "soluble"}
